According to publication PMC8170886:

Molecular target: bacteriophage P22 coat protein (bacteriophage P22) (UniProt P26747)
Experiment: densitometry of SDS-PAGE of the purified particles; purified ASNase-P22 nanoreactors from different chromatograms, bands quantified with ImageJ; numbers per capsid calculated on 420 CP

“ASNase-SP chimeric protein (E. coli asparaginase II fused to the bacteriophage P22 scaffold protein) (from UniProt P00805 23-348) (enzyme)” was tested, and the ASNase-SP tetramers per capsid of 420 CP (tetramers per capsid) was 110, the monomers per capsid (monomers per capsid) was 448 and the percent ASNase-SP in the nanoreactor's protein (densitometry) was 41.6%. It also gave a percent CP in the nanoreactor's protein (densitometry) of 58.4%.
